Source: publication PMC12187079 (Nature, 2024)

Tests used:
Test in all cases: immunostaining of cells or tissue
Conditions in all cases: one partner purified
BANAL-20-52 NTD-mFc = BANAL-20-52 NTD-mFc (Bat coronavirus BANAL-20-52/Laos/2020 …)
SARS-CoV-2 NTD-mFc = SARS-CoV-2 NTD-mFc (SARS-CoV-2 Wuhan-Hu-1 (NC_045512))
RaTG13 NTD-mFc = RaTG13 NTD-mFc (Bat coronavirus RaTG13 (MN996532))

Measured: binding result

B1: S2L20-CVR (receptor)
VH: EVQLVESGGGVVQPGGSLRLSCAASGFTFNSYGMHWVRQAPGKGLEWVAFIRYDGGNKYYADSVKGRFTISRDNSKNTLYLQMKSLRAEDTAVYYCANLKDSRYSGSYYDYWGQGTLVTVS
VL: not shown
notes: also called HEK293T-S2L20-CVR; source: HEK293T, stably expressing (lentiviral transduction), on cells
binds: BANAL-20-52 NTD-mFc | SARS-CoV-2 NTD-mFc | RaTG13 NTD-mFc
